Reference: the RNAGym collection of RNA variant scans (doi:10.7554/elife.80360)

B1: HDV Ribozyme (parent)
chain: GGCCGGCAUGGUCCCAGCCUCCUCGCUGGCGCCGGCUGGGCAACAUUCCGAGGGGACCGUCCCCUCGGUAAUGGCGAAUGGGACCCA

Variants of: B1
Experiment: self-cleavage, relative activity (ratio to wild type); higher = more cleavage; co-transcriptional

Variant	self-cleavage
G39U C64A	0.649
G40A C84U	0.377
G40A C84G	0.594
G39U G80A	0.151
G39U G80U	0.119
G40C U47A	0.0845
G40C U47G	0.173
G40A G73A	0.669
G40A G73C	0.544
G40U C64G	0.446
G40U C84G	0.354
G40U C84A	0.383
G40U C84U	0.398
G39C C85G	0.298
G39C C85U	0.405
G39C C85A	0.203
G40C G54A	0.398
G40C G54U	0.205
G40C C86G	0.222
G40U C57A	0.719
G40U C57G	0.712
G39U A56U	0.819
G39U A56C	0.701
G39U U60G	0.502

Variant	self-cleavage
G39U G67U	0.727
G40C G81A	0.0755
G40C G81C	0.115
G40U C61U	0.631
G40U C61G	0.534
G40U C61A	0.632
G39C G68A	0.241
G39C G68U	0.246
G40C C49U	0.125
G40C C49A	0.381
G39U C57G	0.786
G40U G59A	0.812
G40U G59C	0.76
G40C U60G	0.271
G40C U60C	0.332
G40A U47C	1.03
G40A U47G	0.831
G40A U47A	0.997
G40A C66G	0.655
G40A C66U	0.892
G39C C64G	0.295
G39C C64U	0.224
G40U A71G	0.46
G40U A71U	0.459

Variant	self-cleavage
G39U G82A	0.27
G39C C66G	0.185
G39C C66A	0.361
G40C A45C	0.0845
G40U G50A	0.577
G40U G50C	0.626
G40U G74A	0.415
G40A A51U	0.844
G40U C85A	0.427
G40U C85U	0.911
G40C U46A	0.0339
G40C U46G	0.0831
G39C C75G	0.0831
G39C C75A	0.142
G39C C75U	0.0583
G40A G82A	0.358
G40U G53U	0.75
G39U C41U	0.966
G40A G68C	0.794
G39U U46C	0.486
G39U U46G	0.222
G39U U46A	0.285
G40C G82U	0.0978
G40C G82C	0.188

Variant	self-cleavage
G40C G82A	0.233
G39U C63U	0.915
G40C G52C	0.0573
G40C G52A	0.247
G40C G52U	0.246
G40C A78C	0.147
G39U C86A	0.796
G39U C86U	0.858
G40C C63A	0.475
G39U U65G	0.583
G40C A77U	0.128
G40C G76U	0.346
G40U C66U	0.753
G40U C66G	0.582
G40U C66A	0.702
G39C G59U	0.147
G39C G76C	0.514
G39U U79A	0.148
G39U U79G	0.277
G39U U79C	0.155
G40A C86A	1.2
G39U C49G	0.665
G39U A43U	0.148
G40A G81U	0.342

Variant	self-cleavage
G40A G81C	0.29
G40C C84U	0.0852
G40C C84G	0.128
G39U G73C	0.3
G40C C58A	0.151
G40C C58G	0.264
G39C G54C	0.253
G39C G54U	0.222
G39C U47G	0.199
G39U G50U	0.627
G39U G50A	0.681
G40C U72A	0.124
G40C U72C	0.174
G40C U69C	0.158
G40C A70C	0.208
G40C A70U	0.191
G40C A70G	0.0941
G40A G53A	0.882
G40A G53C	1.01
G39U C62U	0.918
G39U G55A	0.831
G39U G55U	0.677
G39U A70U	0.831
G40U C62U	0.872

Variant	self-cleavage
G40U C62A	0.709
G39C C86A	0.261
G40A A71U	0.796
G40U A56C	0.639
G39C U46A	0.19
G39C U46C	0.214
G39C U46G	0.262
G39C G50U	0.345
G39C G50C	0.104
G40A U46A	0.437
G39U A78G	0.198
G39U A78C	0.13
G39U A78U	0.157
G39U G53A	0.789
G39U G53C	0.831
G39C G73A	0.0339
G40C C41A	0.706
G39C G81C	0.089
G40U G73C	0.166
G40U G73A	0.463
G40U C58G	0.598
G39C U65A	0.0462
G40U A45G	0.688
G40U A45U	0.361

Variant	self-cleavage
G40C A43C	0.123
G40U A51G	0.717
G40U A51C	0.627
G40U G81A	0.328
G40A G59U	0.987
G40A G59C	0.831
G40U A87C	0.732
G40U G67U	0.757
G40U G67C	0.639
G39U A83U	0.259
G39U A83C	0.157
G39C C63A	0.259
G39C C63U	0.369
G40C A51U	0.157
G40A G67C	0.992
G40A G67U	0.919
G40A G67A	1.12
G40A G80U	0.217
G40A G80A	0.427
G40A G80C	0.161
G40U A42C	0.671
G40A A77U	0.523
G39U C85A	0.609
